Laboratory results reported in patent US11497796B2, “Agents directed against a cis RGMa/neogenin interaction or lipid rafts and use of the same in methods of treatment” (UNIVERSITY HEALTH NETWORK, priority 2013, dated 2022).

T1: 6FNIII-domain of Neogenin (Gallus gallus, UniProt Q90610)
T1 construct: made in house
T1 sequence (Q90610 429-1036): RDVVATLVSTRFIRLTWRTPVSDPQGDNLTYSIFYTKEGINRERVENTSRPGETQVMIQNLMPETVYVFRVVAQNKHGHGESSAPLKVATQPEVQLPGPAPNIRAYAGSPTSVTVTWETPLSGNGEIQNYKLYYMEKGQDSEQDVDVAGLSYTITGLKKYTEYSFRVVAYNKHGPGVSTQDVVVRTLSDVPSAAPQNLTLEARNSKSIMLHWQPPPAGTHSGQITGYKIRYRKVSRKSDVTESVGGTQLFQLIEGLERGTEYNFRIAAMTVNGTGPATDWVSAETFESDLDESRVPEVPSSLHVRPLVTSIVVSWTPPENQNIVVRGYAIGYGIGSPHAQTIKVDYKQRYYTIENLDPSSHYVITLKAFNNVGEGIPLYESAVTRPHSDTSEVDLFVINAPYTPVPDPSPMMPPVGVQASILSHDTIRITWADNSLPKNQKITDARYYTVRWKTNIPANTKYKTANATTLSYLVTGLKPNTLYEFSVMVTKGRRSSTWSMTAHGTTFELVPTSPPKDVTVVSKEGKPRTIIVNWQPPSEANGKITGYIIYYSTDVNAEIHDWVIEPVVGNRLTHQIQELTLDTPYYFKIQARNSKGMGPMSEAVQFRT

T2: 6FNIII-domain of Neogenin (His-6FNIII) (Gallus gallus, UniProt Q90610)
T2 construct: His; made in house
T2 sequence (Q90610 429-1036): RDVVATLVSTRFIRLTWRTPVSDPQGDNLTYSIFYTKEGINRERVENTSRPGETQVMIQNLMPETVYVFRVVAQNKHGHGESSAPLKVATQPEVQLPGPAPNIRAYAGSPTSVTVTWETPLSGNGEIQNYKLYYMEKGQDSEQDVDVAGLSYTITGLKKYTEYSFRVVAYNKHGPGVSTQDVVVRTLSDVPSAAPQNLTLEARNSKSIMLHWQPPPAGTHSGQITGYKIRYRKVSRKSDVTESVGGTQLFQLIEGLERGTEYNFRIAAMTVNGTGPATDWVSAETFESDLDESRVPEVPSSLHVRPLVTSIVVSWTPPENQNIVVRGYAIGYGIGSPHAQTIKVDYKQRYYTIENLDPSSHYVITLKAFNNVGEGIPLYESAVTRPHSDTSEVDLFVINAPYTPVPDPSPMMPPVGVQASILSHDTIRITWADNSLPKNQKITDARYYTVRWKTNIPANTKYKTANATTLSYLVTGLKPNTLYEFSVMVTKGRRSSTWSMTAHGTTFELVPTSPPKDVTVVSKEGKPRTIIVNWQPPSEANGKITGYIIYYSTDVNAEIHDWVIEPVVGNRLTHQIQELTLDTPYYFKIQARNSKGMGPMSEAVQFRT

T3: 4Ig-domain of Neogenin (Gallus gallus, UniProt Q90610)
T3 construct: made in house
T3 sequence (Q90610 1-383): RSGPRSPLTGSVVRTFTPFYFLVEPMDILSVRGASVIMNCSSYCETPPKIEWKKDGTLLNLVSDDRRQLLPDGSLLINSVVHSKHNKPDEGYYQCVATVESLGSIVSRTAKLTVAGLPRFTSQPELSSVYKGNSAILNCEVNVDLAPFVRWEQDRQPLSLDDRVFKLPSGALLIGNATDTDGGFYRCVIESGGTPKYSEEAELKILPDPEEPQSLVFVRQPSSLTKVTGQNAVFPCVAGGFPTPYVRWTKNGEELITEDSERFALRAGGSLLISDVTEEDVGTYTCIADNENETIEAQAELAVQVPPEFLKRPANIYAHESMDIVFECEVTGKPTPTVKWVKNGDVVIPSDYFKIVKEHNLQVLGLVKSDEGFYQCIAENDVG


Tests used:
[1] = test system: retinal explants (retinal ganglion cell neurites); test: Retinal explant neurite outgrowth on laminin or myelin; assay type: cell-based, chick; conditions: AY-9944 1 μM, BM15.766 4 μM, 18 hrs
Protocol: (§1) Retinal explants outgrowth assay. Poly-L-Lysine (PLL; SIGMA; 10 μg/ml) coated glass coverslips were treated with Laminin (10 μg/ml; Invitrogen) and RGMa proteins (5 μg) and incubated for 3 hrs at room temperature. PLL treated coverslips were coated with myelin overnight (6 μg/cm2), followed by coating with Laminin. Temporal retinal explants were cultured on either myelin or protein-coated surfaces in DMEM F-12 media (2% chick serum, 10% FBS) for 18 h. To disrupt rafts, explants were pre-treated with 10 mM MβCD for 12 min or 2 U/ml CO for 1 h at 37° C., washed, and cultured on protein coated coverslips. Explants were then fixed with 4% PFA and stained with Alexa488-fluor-phalloidin (1:50; Molecular Probes). Fiber length was quantified using Image Pro 5.0.
Specifically, retinal explants were prepared from E7 chick embryos, cultured on coverslips coated with on Laminin or myelin, and treated with control (DMSO) or AY-9944 (1 μM) or BM15.766 (4 μM), two inhibitors of cholesterol biosynthesis. After 18 hrs in culture, explants were fixed with 4% PFA and stained with Alexa488-Phalloidin. Neurites were measured using Cellsens software. Retinal explants were cultured on laminin (control) or myelin (the inhibitory compound of the CNS). On laminin, axon growth was normal compared to myelin because myelin inhibited outgrowth.

photoreceptor cells = test: Photoreceptor survival in rd1 mice (retinitis pigmentosa model); assay type: in vivo, mouse
Protocol: The rd1 mouse model is a model for human RP and carried a loss-of-function mutation in the gene encoding for the β-subunit of the rod photoreceptor cGMP phosphodiesterase-6.2. This loss-of-function mutation led to an accumulation of cGMP, which caused photoreceptor cell death.
In these studies, intraocular injection of the 4Ig (2 μg/μl) peptide at P9 and P15 was performed and animals were sacrificed at P21 to examine cell survival. […] Injection of 4Ig increased outer nuclear layer (ONL) thickness to about 6 cells (FIG. 19). This measurement was the average thickness of the ONL.
As described above, cholesterol depletion removes lipid rafts. Specifically, mice were treated with daily […] (IP) injections of MβCD from P9 to P21.
To examine the effect of reducing cholesterol synthesis on cell survival, AY-9944 was examined in rd1 mice (FIGS. 20 and 21). Rd1 mice were treated using two intra-peritoneal injections of AY-9944, at P9 and P15 and sacrificed at P21.

[2] = test system: temporal retinal explants (axonal outgrowth); test: Retinal explants outgrowth assay; assay type: cell-based, chick; conditions: for effect on axonal outgrowth when provided as growth substrate (in trans): protein as substrate
Protocol: Poly-L-Lysine (SIGMA; 10 μg/ml) coated glass coverslips were treated with Laminin (Invitrogen; 10 μg/ml) and RGMa proteins (5 μg/ml) and incubated for 3 hours at room temperature. Temporal retinal explants were cultured on protein-coated surfaces for 18 hours. To disrupt the lipid rafts, explants were pretreated with 10 mM methyl-β-cyclodextrin (MβCD) for 12 minutes or 2 U/ml cholesterol oxidase (CO) for 1 hour at 37° C. Explants were then fixed with 4% paraformaldehyde (PFA) and stained with Alexa488-phalloidin. Fiber length was quantified using Image Pro 5.0. For immunolocalization, explants were treated with Cholera Toxin B-FITC (C1655; Sigma; 10 mg/mL) and patched, fixed and stained with Neogenin antibody. Retinal ganglion cells (RGCs) were electroporated with RGMa-His and cultured for 18 hours. The cells were fixed and stained with Neogenin and His-tag antibodies.
as §1
Statistical analysis of retinal outgrowth assays was performed using Student's two-tail t-test using Excel (Microsoft). Results were expressed as the mean±SEM (n=at least 3 independent experiments; 2 duplicates per independent experiment, >10 explants per duplicate).

[3] = target: T1, 6FNIII-domain of Neogenin; test: ELISA / AP binding assay of RGMa peptides to Neogenin domains; conditions: Neogenin domains fused to AP
From the text: (§2) Specifically, the 4Ig-domain and 6FNIII-domain of Neogenin were each fused to alkaline phosphatase (AP). The 4Ig-domain and 6FNIII-domain of Neogenin were found in the extracellular portion of Neogenin. Accession No. AAC59662 (SEQ ID NO:1) was the amino acid sequence of Neogenin. The 4Ig-domain was amino acids 1 to 383 of Accession No. AAC59662 (SEQ ID NO:1). The 6FNIII-domain was amino acids 429 to 1036 of Accession No. AAC59662 (SEQ ID NO:1).
(§3) The binding of these fusions to various RGMa peptides were analyzed in an ELISA assay (FIG. 2A).
(§4) To determine if distinct N-terminal regions of RGMa bound the 4Ig- and 6FNIII-domains of Neogenin, peptides were generated that spanned the N-terminal region of RGMa. The amino acid sequence of RGMa was Accession No. NP_989868.1 (SEQ ID NO:6). These peptides were a peptide spanning amino acids 28-73 of RGMa (also referred to herein as “N-Raft”) and a peptide spanning amino acids 77-113 of RGMa (also referred to herein as “N-inh”). […] In a complementary experiment, in which the N-Raft and N-inh peptides of RGMa were fused with AP instead of the 4Ig- and 6FNIII-domains of Neogenin, N-Raft bound to the 4Ig-domain and not the 6FNIII-domain while N-inh bound to the 6FNIII-domain and not the 4Ig-domain (FIG. 9). Additionally, N-inh and N-Raft coated beads pulled down 6FNIII-domain and 4Ig-domain, respectively, which was consistent with the ELISA results described above (FIG. 2B).
(§5) The assay was conducted in a 96-well microtiter plate (Corning Incorporated). The wells were coated with 100 μl (10 μg/mL) of Poly-L-Lysine at 4° C. overnight. Wells were then washed three times with 100 μl of PB ST (+0.02% Tween).
(§6) 50 μl (2.5 μg/mL) of His-tagged: Full-length Neogenin; the 4Ig-domain of Neogenin; and 6FNIII-domain of Neogenin were coated onto each well for 1 hour at 37° C. Following three washes of 100 μl PBST, each well was then blocked with 300 μl of 3% BSA in PBST for 1 hour at 37° C.
(§7) 50 μl (1.0 μg/mL) AP-tagged: N-RGMa (28-73); N-RGMa (28-54); N-RGMa (40-62); N-RGMa (54-73); N-RGMa (54-62) in 1% BSA+PBST was then added to each well and incubated at 37° C. for 1 hour. Each well was washed thoroughly three times with 100 μl PBST followed by subsequent equilibration of each well with Alkaline Phosphatase (AP) developing buffer (100 mM NaHCO3, 1 mM MgCl2). The reaction was developed using AP developing buffer supplemented with, p-nitrophenyl phosphate (pNPP) (Sigma-Aldrich) and allowed to develop until color development. The reaction was stopped with the addition of 50 μl (0.1M) NaOH. The absorbance of each reaction was measured using a microplate autoreader (BIO-TEK Instruments Inc.) at 405 nanometers (nm) wavelength.

[4] = target: T2, 6FNIII-domain of Neogenin (His-6FNIII); test: Pull-down assay with peptide-coated beads; assay type: binding; conditions: Western blot with anti-His
Protocol: (A) RGMa proteins were incubated on plates coated with 4Ig- or 6FNIII-AP. One C- and one N-RGMa domain (N-RGMa^77-113) interacted with 6FNIII. One N-RGMa domain (N-Raft) interacted with 4Ig. (B) Supernatants (Sup) from cells expressing His-6FNIII or His-4Ig, were pulled down (IP) with beads coated with N-Raft, N-RGMa^50-99, and N-inh. Western Blot was then performed with an anti-His antibody to reveal whether or not His-6FNIII or His-4Ig interacted with the coated beads. […] Data are average±SEM (n=3 independent experiments), *p<0.0001. Scale bar, 100 μm. (E) Chick brains were injected with control peptide (Ctrl; N-RGMa^50-99), 4Ig, N-Raft, or Noggin 1 day before preparing membrane fractionations. In control experiments, Neogenin localized to the Flotillin/RGMa-containing lipid raft fraction (as shown in solid lined boxes). 4Ig, N-Raft, or Noggin shifted Neogenin to heavy fractions.
Proteins were coupled to activated CNBr Sepharose beads (Pharmacia) according to supplier instructions. Supernatants from transfected cells were added to coupled beads for 2 h at room temperature (RT). Beads were then washed 6× with PBS plus 0.02% Tween 20, and SDS loading buffer was added. Samples were boiled and subjected to Western blotting.

4Ig-domain of Neogenin = target: T3, 4Ig-domain of Neogenin; test: ELISA / AP binding assay of RGMa peptides to Neogenin domains; conditions: for interaction with the 4Ig-domain of Neogenin: ELISA, Neogenin domains fused to AP
From the text: as §2, §3, §4, §5, §6, §7

Molecule | outgrowth on laminin [1] | outgrowth on myelin [1] | interaction with the 6FNIII-domain of Neogenin [3] | effect on axonal outgrowth when provided as growth substrate (in trans) [2] | interaction with the 4Ig-domain of Neogenin (4Ig-domain of Neogenin) | other results
Clc1ccccc1CNCC1CCC(CNCc2ccccc2Cl)CC1 (stereo not shown) [AY-9944] | did not influence outgrowth on laminin | restored outgrowth on myelin |  |  |  | number of rods within the Outer Nuclear Layer (anti-Rhodopsin) (photoreceptor cells; injected at P9, P21): dramatic increase in the number of rods; photoreceptor survival (photoreceptor cells; two intra-peritoneal injections at P9 and P15, sacrificed at P21): promoted photoreceptor survival
O=C(O)c1ccc(CCN2CCN(C/C=C/c3ccc(Cl)cc3)CC2)cc1 [BM15.766] | did not influence outgrowth on laminin | restored outgrowth on myelin |  |  |  | 
N-inh: peptide spanning amino acids 77-113 of RGMa (GDLAYHSAVHGIDDLMVQHNCSKDGPTSQPRLRTLPP; left off: small tags and cut ends) |  |  | interacted |  |  | axonal growth on peptide as substrate ([2]; RGMa peptide as substrate, controls 238.1±9.3 μm): 88.1±13.3 μm; pull-down of 6FNIII-domain by peptide-coated beads [4]: pulled down
RGMaΔ: RGMaΔ was full-length RGMa (protein) CKILKCNSEFWAATSGSHHLGAEETPEFCTALRAYAHCTRRTARTCRGDLAYHSAVHGIDDLMVQHNCSKDGPTSQPRLRTLPPGDSQERSDSPEICHYEKSFHKHSAAPNYTHCGLFGDPHLRTFTDTFQTCKVQGAWPLIDNNYLNVQVTNTPVLPGSSATATSKLTIIFKSFQECVEQKVYQAEMDELPAAFADGSKNGGDKHGANSLKITEKVSGQHIEIQAKYIGTTIVVRQVGRYLTFAVRMPEEVVNAVEDRDSQGLYLCLRGCPLNQQIDFQTFRLAQAAEGRARRKGPSLPAPPEAFTYESATAKCREKLPVEDLYFQSCVFDLLTTGDVNFMLAAYYAFEDVKMLHSNKDKLHLYERTRALAPGN |  |  | interacted | blocked axon growth | did not interact | binding to the 4Ig-domain of Neogenin (4Ig-domain of Neogenin; AP-tagged fragments 1.0 μg/mL on coated His-tagged 4Ig): did not bind
N-RGMa: N-terminal RGMa isoform of the CNS (protein, Mouse N-RGMa, N-terminal RGMa isoform of the CNS) MQPPRERLVVTGRAGWMGMGRGAGRSALGLWPTLAFLLCSFPAAISPCKILKCNSEFWSATSSGSHAPASDDVPEFCAALRTYALCTRRTARTCRGDLAYHSAVHGIEDLMSQHNCSKDGPTSQPRVRTLPPAGDSQERSDSPEICHYEKSFHKHSAAPNYT |  |  | interacted | blocked axon growth | interacted | 
